Laboratory results from paper PMC9482650, “Quantitative fragmentomics allow affinity mapping of interactomes” (Nature Communications, 2022).

T1: FRMPD1, Q5SYB0
T1 sequence (Q5SYB0 52-145, limits assumed, looked up): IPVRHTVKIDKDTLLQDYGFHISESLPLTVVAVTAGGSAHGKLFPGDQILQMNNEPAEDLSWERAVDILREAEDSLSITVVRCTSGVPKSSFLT

T2: RHPN1, Q8TCX5
T2 sequence (Q8TCX5 508-602, limits assumed, looked up): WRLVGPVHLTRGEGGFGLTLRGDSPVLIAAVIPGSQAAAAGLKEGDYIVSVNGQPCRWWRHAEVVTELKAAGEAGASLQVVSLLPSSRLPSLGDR

T3: DLG3_1, Q92796
T3 sequence (Q92796 125-227, limits assumed, looked up): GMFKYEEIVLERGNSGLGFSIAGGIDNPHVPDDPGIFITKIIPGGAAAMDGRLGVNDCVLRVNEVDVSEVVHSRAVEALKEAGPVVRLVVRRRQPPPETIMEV

T4: LNX2_2, Q8N448
T4 sequence (Q8N448 334-432, limits assumed, looked up): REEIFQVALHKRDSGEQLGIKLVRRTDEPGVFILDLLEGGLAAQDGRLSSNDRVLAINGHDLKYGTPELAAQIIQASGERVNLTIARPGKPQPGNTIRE

T5: TX1BP3, O14907
T5 sequence (O14907 10-122, limits assumed, looked up): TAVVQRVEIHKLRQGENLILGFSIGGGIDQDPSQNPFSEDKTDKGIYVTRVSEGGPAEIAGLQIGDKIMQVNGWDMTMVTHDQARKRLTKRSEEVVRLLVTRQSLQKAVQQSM

T6: PCLO, Q9Y6V0
T6 sequence (Q9Y6V0 4491-4600, limits assumed, looked up): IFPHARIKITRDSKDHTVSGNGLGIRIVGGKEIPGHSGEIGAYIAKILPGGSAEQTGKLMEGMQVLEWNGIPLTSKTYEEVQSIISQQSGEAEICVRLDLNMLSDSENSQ

T7: PDZRN3_1, Q9UPQ7
T7 sequence (Q9UPQ7 244-349, limits assumed, looked up): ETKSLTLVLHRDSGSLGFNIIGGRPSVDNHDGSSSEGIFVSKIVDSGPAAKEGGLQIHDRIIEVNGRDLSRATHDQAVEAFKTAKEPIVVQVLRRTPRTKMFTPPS

T8: MPP2, Q14168
T8 sequence (Q14168 180-250, limits assumed, looked up): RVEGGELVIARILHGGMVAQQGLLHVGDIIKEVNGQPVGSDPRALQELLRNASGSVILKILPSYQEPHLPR

T9: SNTA1, Q13424
T9 sequence (Q13424 82-180, limits assumed, looked up): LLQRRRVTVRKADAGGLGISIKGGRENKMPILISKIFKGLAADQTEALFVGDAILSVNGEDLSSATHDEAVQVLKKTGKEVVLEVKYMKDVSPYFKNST

T10: LIN7B, Q9HAP6
T10 sequence (Q9HAP6 88-185, limits assumed, looked up): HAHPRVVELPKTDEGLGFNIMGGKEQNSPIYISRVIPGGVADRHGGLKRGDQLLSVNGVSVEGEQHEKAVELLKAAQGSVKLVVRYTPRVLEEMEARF

T11: SNTG2, Q9NY99
T11 sequence (Q9NY99 68-166, limits assumed, looked up): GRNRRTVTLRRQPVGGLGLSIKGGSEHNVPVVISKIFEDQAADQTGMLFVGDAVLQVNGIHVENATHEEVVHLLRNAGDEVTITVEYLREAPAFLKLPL


Experiments:
Experiment in all cases: holdup assay
Set-up in all cases: key: below the threshold = too weak to quantify, mostly under pKd 3.1 to 4
Details in all cases: plain residues with an end cap or a label only (N-terminal biotin on a linker: ado-ado)
GRIP2_3, Q9C0E4 = target: GRIP2_3, Q9C0E4
FRMPD1, Q5SYB0 = target: T1, FRMPD1, Q5SYB0
NHERF4_1, Q86UT5-2 = target: NHERF4_1, Q86UT5-2
PDLIM1, O00151 = target: PDLIM1, O00151
RHPN1, Q8TCX5 = target: T2, RHPN1, Q8TCX5
DLG3_1, Q92796 = target: T3, DLG3_1, Q92796
PARD3_3, Q8TEW0 = target: PARD3_3, Q8TEW0
SNX27, Q96L92 = target: SNX27, Q96L92
Inadl_4, Q8NI35 = target: Inadl_4, Q8NI35
LNX2_2, Q8N448 = target: T4, LNX2_2, Q8N448
Inadl_8, Q8NI35 = target: Inadl_8, Q8NI35
IL16_3, Q14005 = target: IL16_3, Q14005
TX1BP3, O14907 = target: T5, TX1BP3, O14907
LIMK2, P53671 = target: LIMK2, P53671
DLG4_2, P78352 = target: DLG4_2, P78352
IL16_1, Q14005 = target: IL16_1, Q14005
PCLO, Q9Y6V0 = target: T6, PCLO, Q9Y6V0
PDZRN3_1, Q9UPQ7 = target: T7, PDZRN3_1, Q9UPQ7
MPP2, Q14168 = target: T8, MPP2, Q14168
HTRA1, Q92743 = target: HTRA1, Q92743
SNTA1, Q13424 = target: T9, SNTA1, Q13424
LIN7B, Q9HAP6 = target: T10, LIN7B, Q9HAP6
DLG4_3, P78352 = target: DLG4_3, P78352
FRMPD2_1, Q68DX3 = target: FRMPD2_1, Q68DX3
SNTG2, Q9NY99 = target: T11, SNTG2, Q9NY99
HTRA2, O43464 = target: HTRA2, O43464
IL16_4, Q14005 = target: IL16_4, Q14005
Chain of IL16_4, Q14005 (Q14005 1229-1329): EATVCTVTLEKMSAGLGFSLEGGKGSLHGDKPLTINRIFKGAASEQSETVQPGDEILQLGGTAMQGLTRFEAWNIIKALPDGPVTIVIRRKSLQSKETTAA

Chain of Inadl_8, Q8NI35 (Q8NI35 1425-1530): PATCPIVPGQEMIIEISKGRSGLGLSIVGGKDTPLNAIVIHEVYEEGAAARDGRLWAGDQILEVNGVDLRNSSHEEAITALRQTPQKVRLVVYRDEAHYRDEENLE
Chain of IL16_3, Q14005 (Q14005 1107-1207): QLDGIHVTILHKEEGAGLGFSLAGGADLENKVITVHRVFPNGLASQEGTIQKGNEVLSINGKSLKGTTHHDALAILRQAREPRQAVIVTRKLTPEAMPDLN
Chain of GRIP2_3, Q9C0E4 (Q9C0E4 238-339): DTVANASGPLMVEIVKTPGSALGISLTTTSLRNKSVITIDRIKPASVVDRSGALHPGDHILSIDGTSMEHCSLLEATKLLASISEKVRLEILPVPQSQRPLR
Chain of DLG4_2, P78352 (P78352 155-259): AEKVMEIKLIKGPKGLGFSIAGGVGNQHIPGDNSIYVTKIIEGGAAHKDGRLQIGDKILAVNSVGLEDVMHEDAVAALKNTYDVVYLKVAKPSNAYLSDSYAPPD
Chain of HTRA2, O43464 (O43464 355-458): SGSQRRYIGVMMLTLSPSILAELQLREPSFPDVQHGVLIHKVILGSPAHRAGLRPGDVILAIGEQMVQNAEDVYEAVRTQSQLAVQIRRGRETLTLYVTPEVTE
Chain of PDLIM1, O00151 (O00151 1-87): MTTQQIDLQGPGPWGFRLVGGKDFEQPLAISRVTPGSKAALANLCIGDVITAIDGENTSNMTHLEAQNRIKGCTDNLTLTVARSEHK
Chain of Inadl_4, Q8NI35 (Q8NI35 547-651): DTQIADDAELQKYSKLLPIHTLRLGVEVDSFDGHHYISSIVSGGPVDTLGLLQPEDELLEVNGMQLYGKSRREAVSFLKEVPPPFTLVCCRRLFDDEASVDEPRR
Chain of NHERF4_1, Q86UT5-2 (Q86UT5 other isoform, or with tags, fused parts or gaps): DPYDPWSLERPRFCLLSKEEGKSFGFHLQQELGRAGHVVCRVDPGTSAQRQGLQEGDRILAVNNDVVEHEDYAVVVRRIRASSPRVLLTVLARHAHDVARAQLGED
Chain of HTRA1, Q92743 (Q92743 360-477): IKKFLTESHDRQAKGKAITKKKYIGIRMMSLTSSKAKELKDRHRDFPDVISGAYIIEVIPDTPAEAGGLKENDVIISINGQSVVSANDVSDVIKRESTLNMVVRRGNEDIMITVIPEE
Chain of DLG4_3, P78352 (P78352 306-403): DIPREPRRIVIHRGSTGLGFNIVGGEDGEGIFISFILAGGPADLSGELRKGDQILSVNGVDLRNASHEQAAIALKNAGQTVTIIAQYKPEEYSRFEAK
Chain of FRMPD2_1, Q68DX3 (Q68DX3 770-861): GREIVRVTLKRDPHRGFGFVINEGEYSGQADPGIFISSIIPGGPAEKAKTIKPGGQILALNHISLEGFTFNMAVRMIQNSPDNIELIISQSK
Chain of PARD3_3, Q8TEW0 (Q8TEW0 582-685): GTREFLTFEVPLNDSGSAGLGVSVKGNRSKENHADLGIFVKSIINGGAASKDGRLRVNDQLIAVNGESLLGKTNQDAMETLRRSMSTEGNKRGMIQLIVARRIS
Chain of IL16_1, Q14005 (Q14005 210-306): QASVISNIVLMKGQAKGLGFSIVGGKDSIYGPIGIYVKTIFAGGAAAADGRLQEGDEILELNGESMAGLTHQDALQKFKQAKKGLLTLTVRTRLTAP
Chain of LIMK2, P53671 (P53671 143-248): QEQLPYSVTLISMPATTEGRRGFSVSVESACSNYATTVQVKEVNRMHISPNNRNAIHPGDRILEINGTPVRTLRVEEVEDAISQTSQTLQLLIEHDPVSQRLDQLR

Binder	pKd (GRIP2_3, Q9C0E4)	pKd (FRMPD1, Q5SYB0)	pKd (NHERF4_1, Q86UT5-2)	pKd (PDLIM1, O00151)	pKd (RHPN1, Q8TCX5)	pKd (DLG3_1, Q92796)	pKd (PARD3_3, Q8TEW0)	pKd (SNX27, Q96L92)	pKd (Inadl_4, Q8NI35)	pKd (LNX2_2, Q8N448)	pKd (Inadl_8, Q8NI35)	pKd (IL16_3, Q14005)	pKd (TX1BP3, O14907)	pKd (LIMK2, P53671)	pKd (DLG4_2, P78352)	pKd (IL16_1, Q14005)	pKd (PCLO, Q9Y6V0)	pKd (PDZRN3_1, Q9UPQ7)	pKd (MPP2, Q14168)	pKd (HTRA1, Q92743)	also measured
NPETRDETQL [KCNT1, Q5JUK3]	below the threshold	below the threshold	3.9	below the threshold	4.43	below the threshold	3.64	5.22	below the threshold	below the threshold	below the threshold	below the threshold	3.62	below the threshold	3.59	below the threshold	below the threshold	4.47	below the threshold	below the threshold	pKd (SNTA1, Q13424): 4.04; pKd (LIN7B, Q9HAP6): below the threshold; pKd (DLG4_3, P78352): below the threshold; pKd (FRMPD2_1, Q68DX3): below the threshold; pKd (SNTG2, Q9NY99): 4.08; pKd (HTRA2, O43464): below the threshold; pKd (IL16_4, Q14005): below the threshold
ASGLDKRDYV [CLDN9, O95484]	below the threshold	below the threshold	below the threshold	below the threshold	below the threshold	below the threshold	below the threshold	3.62	below the threshold	3.92	3.91	below the threshold	3.92	below the threshold	below the threshold	below the threshold	below the threshold	below the threshold	below the threshold	3.84	pKd (SNTA1, Q13424): below the threshold; pKd (LIN7B, Q9HAP6): below the threshold; pKd (DLG4_3, P78352): below the threshold; pKd (FRMPD2_1, Q68DX3): below the threshold; pKd (SNTG2, Q9NY99): below the threshold; pKd (HTRA2, O43464): below the threshold; pKd (IL16_4, Q14005): below the threshold
EWTDERQSKV [GAB3, Q8WWW8]	below the threshold	below the threshold	below the threshold	below the threshold	4.2	3.59	below the threshold	4.72	below the threshold	below the threshold	4.02	below the threshold	3.72	below the threshold	4.03	3.97	below the threshold	3.62	below the threshold	below the threshold	pKd (SNTA1, Q13424): 4.43; pKd (LIN7B, Q9HAP6): below the threshold; pKd (DLG4_3, P78352): below the threshold; pKd (FRMPD2_1, Q68DX3): below the threshold; pKd (SNTG2, Q9NY99): 3.88; pKd (HTRA2, O43464): below the threshold; pKd (IL16_4, Q14005): below the threshold
PDSNPEESSV [SEMA4C, Q9C0C4]	below the threshold	below the threshold	3.7	3.54	4.7	below the threshold	below the threshold	5.45	3.48	below the threshold	3.66	below the threshold	4.25	below the threshold	4.22	4.49	below the threshold	4.37	below the threshold	3.85	pKd (SNTA1, Q13424): 4.25; pKd (LIN7B, Q9HAP6): below the threshold; pKd (DLG4_3, P78352): below the threshold; pKd (FRMPD2_1, Q68DX3): below the threshold; pKd (SNTG2, Q9NY99): 4.04; pKd (HTRA2, O43464): below the threshold; pKd (IL16_4, Q14005): below the threshold
